Test results as given in patent US20220153848A1 (DRAGONFLY THERAPEUTICS, published 2022).

B1: A49MI-Duobody-TriNKET-Onartuzumab (bispecific antibody, human IgG1, kappa)
heavy 1: not shown
light 1: DIQMTQSPSSLSASVGDRVTITCKSSQSLLYTSSQKNYLAWYQQKPGKAPKLLIYWASTRESGVPSRFSGSGSGTDFTLTISSLQPEDFATYYCQQYYAYPWTFGQGTKVEIKRTVAAPSVFIFPPSDEQLKSGTASVVCLLNNFYPREAKVQWKVDNALQSGNSQESVTEQDSKDSTYSLSSTLTLSKADYEKHKVYACEVTHQGLSSPVTKSFNRGEC
heavy 2: not shown
light 2: DIQMTQSPSSVSASVGDRVTITCRASQGISSWLAWYQQKPGKAPKLLIYAASSLQSGVPSRFSGSGSGTDFTLTISSLQPEDFATYYCQQGVSFPRTFGGGTKVEIKRTVAAPSVFIFPPSDEQLKSGTASVVCLLNNFYPREAKVQWKVDNALQSGNSQESVTEQDSKDSTYSLSSTLTLSKADYEKHKVYACEVTHQGLSSPVTKSFNRGEC
B2: A49MI-Duobody-TriNKET-Emibetuzumab (bispecific antibody, human IgG1, kappa)
heavy 1: not shown
light 1: DIQMTQSPSSLSASVGDRVTITCSVSSSVSSIYLHWYQQKPGKAPKLLIYSTSNLASGVPSRFSGSGSGTDFTLTISSLQPEDFATYYCQVYSGYPLTFGGGTKVEIKRTVAAPSVFIFPPSDEQLKSGTASVVCLLNNFYPREAKVQWKVDNALQSGNSQESVTEQDSKDSTYSLSSTLTLSKADYEKHKVYACEVTHQGLSSPVTKSFNRGEC
heavy 2: not shown
light 2: B1 light 2
B3: A49MI-Duobody-TriNKET-ABT-700 (bispecific antibody, human IgG1, kappa)
heavy 1: not shown
light 1: not shown
heavy 2: not shown
light 2: B1 light 2

Target: c-MET on the surface of HT29 and HCT-116 human colon cancer cells (human, UniProt P08581 25-1390)
Experiment: cell-based or functional assay

Sequence of c-MET on the surface of HT29 and HCT-116 human colon cancer cells (P08581 25-1390 limits assumed): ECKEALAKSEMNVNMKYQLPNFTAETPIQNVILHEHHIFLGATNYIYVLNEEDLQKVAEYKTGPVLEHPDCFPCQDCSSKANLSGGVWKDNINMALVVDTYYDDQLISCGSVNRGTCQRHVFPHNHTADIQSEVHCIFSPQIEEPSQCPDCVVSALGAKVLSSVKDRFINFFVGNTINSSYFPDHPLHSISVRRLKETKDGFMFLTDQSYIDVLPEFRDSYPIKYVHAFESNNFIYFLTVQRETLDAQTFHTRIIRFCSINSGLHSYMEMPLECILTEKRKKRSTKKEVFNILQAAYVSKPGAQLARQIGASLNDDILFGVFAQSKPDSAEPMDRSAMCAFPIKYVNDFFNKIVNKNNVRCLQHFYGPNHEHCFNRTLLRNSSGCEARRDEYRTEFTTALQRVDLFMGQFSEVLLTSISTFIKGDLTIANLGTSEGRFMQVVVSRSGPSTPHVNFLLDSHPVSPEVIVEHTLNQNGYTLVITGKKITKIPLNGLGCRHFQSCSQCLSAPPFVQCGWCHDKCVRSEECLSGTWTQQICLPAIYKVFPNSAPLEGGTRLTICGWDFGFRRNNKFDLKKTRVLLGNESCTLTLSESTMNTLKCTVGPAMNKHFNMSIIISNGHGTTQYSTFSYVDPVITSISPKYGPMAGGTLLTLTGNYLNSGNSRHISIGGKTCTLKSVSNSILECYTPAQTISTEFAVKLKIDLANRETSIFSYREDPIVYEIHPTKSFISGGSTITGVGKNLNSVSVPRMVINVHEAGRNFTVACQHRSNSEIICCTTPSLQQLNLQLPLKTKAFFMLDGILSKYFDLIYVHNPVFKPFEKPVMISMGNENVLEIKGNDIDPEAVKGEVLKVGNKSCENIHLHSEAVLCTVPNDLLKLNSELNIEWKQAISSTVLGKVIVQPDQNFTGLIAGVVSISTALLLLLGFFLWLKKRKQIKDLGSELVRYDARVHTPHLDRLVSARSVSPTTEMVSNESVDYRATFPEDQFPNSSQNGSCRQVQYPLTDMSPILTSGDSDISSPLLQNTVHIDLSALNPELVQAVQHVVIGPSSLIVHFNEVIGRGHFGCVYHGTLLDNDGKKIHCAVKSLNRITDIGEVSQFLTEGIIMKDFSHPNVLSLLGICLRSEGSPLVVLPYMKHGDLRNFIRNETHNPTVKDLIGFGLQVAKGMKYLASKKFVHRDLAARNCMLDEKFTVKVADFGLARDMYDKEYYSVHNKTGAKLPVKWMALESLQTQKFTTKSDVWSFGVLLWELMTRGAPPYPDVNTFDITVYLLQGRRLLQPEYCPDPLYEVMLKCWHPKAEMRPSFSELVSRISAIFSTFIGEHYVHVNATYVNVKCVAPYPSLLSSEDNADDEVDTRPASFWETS

| Binder | EC50 of human NK cell lysis of c-MET positive target cells (DELFIA cytotoxicity assay) [nM] |
| --- | --- |
| B1 | < 1 |
| B2 | < 1 |
| B3 | < 1 |
